Results: US20100260668A1 (published 2010)
Blank lines part the entries; values can stand above or below the binder they belong to.

Columns and labels:
[1] = biological target: T1, CD40/FC (CD40 ECD/FC chimera-His tag) (UniProt P25942 21-193, limits assumed); assay: Direct Bind ELISA, antigen on plate; N-terminal VD
T1 construct: extracellular domain; Bought reagent
Protocol: (§1) Enzyme Linked Immunosorbent Assays to screen for antibodies that bind a desired target antigen were performed as follows. […] Plates were washed four times with PBS containing 0.02% Tween 20. Plates were blocked by the addition of 300 μL/well blocking solution (non-fat dry milk powder, various retail suppliers, diluted to 2% in PBS) for ½ hour at room temperature. Plates were washed four times after blocking with PBS containing 0.02% Tween 20.
(§2) Alternatively, one hundred microliters per well of 10 μg/ml of Histidine (His) tagged desired target antigen (R&D Systems, Minneapolis, Minn.) was added to ELISA plates coated with monoclonal mouse anti-polyHistidine antibody as described above and incubated for 1 hour at room temperature. Wells were washed four times with PBS containing 0.02% Tween 20.
(§3) One hundred microliters of antibody or DVD-Ig preparations diluted in blocking solution as described above was added to the desired target antigen plate or desired target antigen/FC fusion plate or the anti-polyHistidine antibody/His tagged desired target antigen plate prepared as described above and incubated for 1 hour at room temperature. Wells are washed four times with PBS containing 0.02% Tween 20.

[2] = biological target: T1, CD40/FC (CD40 ECD/FC chimera-His tag); assay: Direct Bind ELISA, antigen on plate; C-terminal VD
Protocol: as §1, §2, §3

T1 sequence (P25942 21-193 limits assumed, change not shown): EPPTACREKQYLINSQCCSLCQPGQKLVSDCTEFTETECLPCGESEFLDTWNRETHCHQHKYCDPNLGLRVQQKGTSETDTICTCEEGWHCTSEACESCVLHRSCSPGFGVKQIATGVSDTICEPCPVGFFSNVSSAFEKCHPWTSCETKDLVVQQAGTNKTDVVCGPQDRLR

EC50 [1]: 0.82 nM
B1: DVD010 (CD-40 and CD-20 DVD-Ig) (bispecific antibody, IgG1)
VH: QVQLVESGGGVVQPGRSLRLSCAASGFTFSSYGMHWVRQAPGKGLEWVAVISYEESNRYHADSVKGRFTISRDNSKITLYLQMNSLRTEDTAVYYCARDGGIAAPGPDYWGQGTLVTVSSASTKGPQVQLQQPGAELVKPGASVKMSCKASGYTFTSYNMHWVKQTPGRGLEWIGAIYPGNGDTSYNQKFKGKATLTADKSSSTAYMQLSSLTSEDSAVYYCARSTYYGGDWYFNVWGAGTTVTVSA
VL: DIVMTQSPLSLTVTPGEPASISCRSSQSLLYSNGYNYLDWYLQKPGQSPQVLISLGSNRASGVPDRFSGSGSGTDFTLKISRVEAEDVGVYYCMQARQTPFTFGPGTKVDIRRTVAAPQIVLSQSPAILSPSPGEKVTMTCRASSSVSYIHWFQQKPGSSPKPWIYATSNLASGVPVRFSGSGSGTSYSLTISRVEAEDAATYYCQQWTSNPPTFGGGTKLEIKR
notes: Outer AB009, inner AB001; HC vector V1 (wild-type hIgG1 constant), LC vector V2 (kappa constant); also called DVD010H; DVD010L

EC50 [2]: 3.55 nM
B2: DVD009 (CD-20 and CD-40 DVD-Ig) (bispecific antibody, IgG1)
VH: QVQLQQPGAELVKPGASVKMSCKASGYTFTSYNMHWVKQTPGRGLEWIGAIYPGNGDTSYNQKFKGKATLTADKSSSTAYMQLSSLTSEDSAVYYCARSTYYGGDWYFNVWGAGTTVTVSAASTKGPQVQLVESGGGVVQPGRSLRLSCAASGFTFSSYGMHWVRQAPGKGLEWVAVISYEESNRYHADSVKGRFTISRDNSKITLYLQMNSLRTEDTAVYYCARDGGIAAPGPDYWGQGTLVTVSS
VL: QIVLSQSPAILSPSPGEKVTMTCRASSSVSYIHWFQQKPGSSPKPWIYATSNLASGVPVRFSGSGSGTSYSLTISRVEAEDAATYYCQQWTSNPPTFGGGTKLEIKRTVAAPDIVMTQSPLSLTVTPGEPASISCRSSQSLLYSNGYNYLDWYLQKPGQSPQVLISLGSNRASGVPDRFSGSGSGTDFTLKISRVEAEDVGVYYCMQARQTPFTFGPGTKVDIRR
notes: Outer AB001, inner AB009; HC vector V1 (wild-type hIgG1 constant), LC vector V2 (kappa constant); also called DVD009H; DVD009L
